In patent US20200368361A1:
Changes are numbered by the printed parent chain. Numbers in names are those of the source.

B1: H2aM21229N (antibody, mouse IgG2a, V domains shown)
VH: EVQLVESGGGLVKPGGSLRLSCAASGFTFSRYSMNWVRQAPGKGLEWVSSISSSSSYIYYGDTVKGRFTISRDNAKKSLYLQMNSLRAEDTAVYYCVRDRGQLVLYFDYWGQGTLVTVSS
VL: DIQMTQSPASLSTSIRDRVTITCRASLSISSFLNWFQQRPGKAPKLLIYVASNLQSGVPSRFSDSGSGTDFTLTISSLQPEDFATYYCQQNYSTPPITFGQGTRLEIK
B2: H1H27739P-N297Q (antibody, human IgG1, V domains shown)
VH: EVQLVESGGGLVQPGGSLRLSCTASGFTFSSYAMSWVRQAPGKGLEWVSAISGTGSSTYFTDSVKGRFAISRDNSKNTLYLQMNSLRAEDTAVYYCAKDGEWLSTVTLFDYWGQGTLVTVSS
VL: EIVMTQSPATLSVSPGERATLSCRASQSVSSNLAWYQQKPGQAPRLLIYGASTRATGIPARFSGSGSGTDFTLTISSLQSEDFALYYCQQYFIWPPHPTFGPGTKVDIKR
B3: H1H27747P-N297Q (antibody, human IgG1, V domains shown)
VH: QVQLVESGGAVVQPGRSLRLSCAASGFTFSYYGMHWVRQAPGKGLEWVAVISYDGSKKYYADSVKGRFTISRDNSKNTLYLQMNSLRAEDTAVYYCAKDLTVDFYYGMDVWGQGTTVTVSS
VL: DIQMTQSPSSVSASVGDRVTITCRASQGISSWLAWYQQKPGKAPKLLIYATSSLQSGAPSRFSGSGSGTDFTLTISSLQPEDFATYFCQQANSFPYTFGQGTKLEIKR
B4: H1H27754P-N297Q (antibody, human IgG1, V domains shown)
VH: EVQLVESGGGLVQPGGSLRLSCAASGFTFRTYAMTWVRQAPGKGLDWVSAITGDGGNTYYADSVKGRFTISRDNSKNTLYLQMNSLRAEDTAIYYCAKDQRFSFALYYFDYWGQGTLVTVSS
VL: B3 VL with K42N, T51A, S52F, A58V, F87Y, S93N, Y96W, L104V
B5: H1H27729P-N297Q (antibody, human IgG1, V domains shown)
VH: QVQLVESGGGLVKPGGSLRLSCAASGFIFSDYYMSWIRQAPGKGLEWVSYISSSGTTIYGDSVKGRFTMSRDNAKNSLYLQMNSLRAEDTAVYYCARNYALFDYWGQGTLVTVSS
VL: DIQMTQSPSSLSASVGDRVTITCQASQDISKYLNWYQQKPGKAPKLLIYYTSNLETGVPSRFSGSGSGTDFTFTISSLQPEDIATYYCHQSDYLPFTFGPGTKVDIKR
B6: H1H21234N-N297Q (antibody, human IgG1, V domains shown)
VH: QVQLQESGPGLVKPSETLSLTCTVTGGSISRNYWSWIRQPPGKGLEWIGYIYYSGSIDYNPSLKSRVTISVDTSKNQFSLKLSSMTAADTAVYYCARDRWNWKYGMDVWGQGTTVIVSS
VL: EIVLTQSPGTLSLSPGERATLSCRASQTVRNNYLAWYHQKPGQAPRLLIYGASSRATGIPDRFSGSGSGTDFTLTISRLEPEDFTVYYCHQYGNSPWTFGQGTKMEIKR
B7: H2aM25695N (antibody, mouse IgG2a, V domains shown)
VH: B6 VH with D58N, T73M, S83N, M85V
VL: B6 VL with N32S, T85A, H90Q, N94S, P96Y
B8: H1H21234N (antibody, human IgG1, V domains shown)
VH: B6 VH
VL: B6 VL
B9: H1H21227N-N297Q (antibody, human IgG1, V domains shown)
VH: QVQLVQSGAEVKKPGASVKVSCKVSGYTLTELSIHWVRQVPGKGLEWMGGFDPEEGETIFAQEFRDRVTLTEDTSPDTAYMELSSLKSEDAAVYYCTTPRYCNNGICYDYWGQGTLVTVSS
VL: DIQMTQSPSSLSASVGDRVTITCRASQSISNYLNWYQQKPGKAPKLLIYTASSLQSGVPSRFSGSGSGTDFTLTISSLQTEDFATYYCQQSYSNFPITFGQGTRLEIKR
B10: H1H21227N (antibody, human IgG1, V domains shown)
VH: B9 VH
VL: B9 VL
B11: H1H21227N-N297D (antibody, human IgG1, V domains shown)
VH: B9 VH
VL: B9 VL
B12: H1H21231N (antibody, human IgG1, V domains shown)
VH: EVQLVESGGGLVQPGGSLRLSCAASGFTFSDHYMDWVRQAPGKGLEWVGRTRNKANSHTTEYTASVTGRFTISRDDSRNSLYLQMNSLKTEDTAVYYCVRAGIIGTLFDYWGQGTLVTVSS
VL: B9 VL with S7F, N31S, Y32F, Y36F, L46F, T50A, T80P, N94S, F95P
B13: H1H21231N-N297Q (antibody, human IgG1, V domains shown)
VH: B12 VH
VL: B9 VL with S7F, N31S, Y32F, Y36F, L46F, T50A, T80P, N94S, F95P
B14: H1H27734P-N297Q (antibody, human IgG1, V domains shown)
VH: EVQLVESRGGLVQPGGSLRLSCAASGFTFSSYAMSWVRQAPGKGLEWVSAISGSGGSTFYADSVKGRFTISRDNSKNTVYLQMNSLRAEDTAVYYCAKALVLRFLEWLGDYWGQGTLVTVSS
VL: DIQMTQSPSTLSASVGDRVTITCRASQSISSWLAWFQQKPGKAPKLLIYKASSLESGVPSRFSGSGSGTEFTLTISSLQPDDFATYYCQQYKSYWTFGQGTKVEIKR

Biological target: endogenously expressed human MSR1 on PMA-treated THP-1 cells (human) (UniProt P21757)
Sequence (P21757 whole entry): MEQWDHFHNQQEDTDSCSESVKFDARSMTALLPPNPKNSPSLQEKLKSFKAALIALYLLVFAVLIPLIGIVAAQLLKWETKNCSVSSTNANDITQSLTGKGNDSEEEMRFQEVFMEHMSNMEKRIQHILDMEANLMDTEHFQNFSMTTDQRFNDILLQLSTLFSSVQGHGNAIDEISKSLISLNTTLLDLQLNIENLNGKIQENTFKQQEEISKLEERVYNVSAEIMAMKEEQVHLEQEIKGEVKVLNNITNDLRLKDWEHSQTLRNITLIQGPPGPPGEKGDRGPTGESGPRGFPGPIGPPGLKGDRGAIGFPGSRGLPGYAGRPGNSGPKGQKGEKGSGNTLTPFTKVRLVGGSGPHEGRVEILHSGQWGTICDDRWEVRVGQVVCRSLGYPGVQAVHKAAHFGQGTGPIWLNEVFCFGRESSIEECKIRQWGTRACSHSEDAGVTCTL
Assay: ECL cell binding, PMA-treated THP-1

First: B1
Second: B2
The binding signal ratio to isotype control (11 nM) of the first is higher: 56 fold for the first, 9 fold for the second.

Going from B3 to B4, the binding signal ratio to isotype control (11 nM) rises from 13 fold to 66 fold.

First: B5
Second: B6
The binding signal ratio to isotype control (11 nM) of the first is lower: 8 fold for the first, 25 fold for the second.

First: B7
Second: B8
The binding signal ratio to isotype control (11 nM) of the first is lower: 8 fold for the first, 18 fold for the second.

Compared with B9, B10 is higher in binding signal ratio to isotype control (11 nM): 5 fold for the first, 7 fold for the second.

First: B11
Second: B12
The binding signal ratio to isotype control (11 nM) of the first is lower: 6 fold for the first, 42 fold for the second.

Going from B13 to B14, the binding signal ratio to isotype control (11 nM) falls from 45 fold to 21 fold.

Biological target: human MSR1 endogenously expressed on PMA-differentiated THP-1 cells (human) (UniProt P21757)
Sequence (P21757 whole entry): as above
Assay: imaging of PMA-differentiated THP-1 cells, 10 ug/mL antibody, Alexa 488 secondary

First: B2
Second: B3
The Total Binding at 4° C. of the first is higher: 3.7e+06 RFU for the first, 2.52e+06 RFU for the second.

First: B4
Second: B5
The Total Binding at 4° C. of the first is higher: 3.08e+06 RFU for the first, 1.93e+06 RFU for the second.

Going from B6 to B9, the Total Binding at 4° C. falls from 1.95e+06 RFU to 1.8e+06 RFU.

B14 gave a Total Binding at 4° C. of 483000 RFU.

Compared with B2, B3 is higher in Total Binding at 37° C.: 5.61e+06 RFU for the first, 5.92e+06 RFU for the second.

Compared with B4, B5 is lower in Total Binding at 37° C.: 7.16e+06 RFU for the first, 6.61e+06 RFU for the second.

Compared with B6, B9 is lower in Total Binding at 37° C.: 5.45e+06 RFU for the first, 4.11e+06 RFU for the second.

In the case of B14, the Total Binding at 37° C. is reported as 1.15e+06 RFU.
